Patent US20180207087A1, “KIT AND AESTHETIC SYSTEM FOR PREVENTION OF SKIN AGING” (priority 2017, published 2018)

Test system: adipose tissue
Format: in vivo, human
Description: Thus, by adjusting the single dose of hyaluronidase in the injection composition for topical fat removal of the present invention to 300 IU to 600 IU, the side effects from using the drug are minimized and yet fat removal over a wide area can be carried out using a minimal volume. It has been shown in clinical trials that at a hyaluronidase activity of 300 IU and an injection volume of 1 cc, the diameter of the diffusion range for the injection composition is about 1 cm. Thus, by injecting the composition at narrow intervals between injection points of 0.5 to 2 cm, even fat removal as well as collagen production by skin stimulation can be facilitated.

hyaluronidase
amount at which adipose cells are excessively hydrolyzed, causing concerns about dimpling or subcutaneous bleeding (human, in vivo, sc): above 600 IU
minimum amount of hyaluronidase exhibiting efficacy (single dose): 300 IU
